Measurements taken from the supplement of paper PMC10126150.
± gives the standard deviation of the averaged measurements.

Tested on: ATP
Experiment: switch fluorescence ratio, 500 uM ATP over buffer (Cy3 cluster intensity, sum of 5 cycles each) (fold (ratio)); higher = stronger signal-on switching upon ATP binding; sequences stand for … in TCGTCGGCAGCGTCAGATGTGTATAAGAGACAGTTTTTTTTTTTTTTTTTTTTTTTTT…TC
Conditions: aptamer strand: ATP DNA aptamer (quencher-CACCTGGGGGAGTATTGCGGAGGAAGG + anchor), 100 nM annealed; ATP concentration: 500 uM
Method in brief: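 Five buffer/ATP imaging cycles were run on Cy3-labelled switching-strand clusters on a modified Illumina MiSeq flow-cell, with NaOH stripping and re-annealing between cycles. In each cycle, clusters annealed to 100 nM quencher-labelled ATP aptamer were imaged in selection buffer, then after 15 min with 500 uM ATP at 22 °C. Per cluster, the fluorescence ratio is summed target-cycle over summed buffer-cycle Cy3 intensity, averaged per switch-domain sequence. Only clusters within 100-1000 RFU were kept.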
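Further: ATP exposure 15 min at 22 °C before imaging.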

Row | Sequence | switch fluorescence ratio
1 | TCGGGTTGAC | 1.02 ± 0.025
2 | TCGGGTTGG | 1.03 ± 0.02
3 | TCGGTAGGGC | 1.025 ± 0.0089
4 | TCGGTAGTGG | 1 ± 0.028
5 | TCGGTATATA | 1.03 ± 0.033
6 | TCGGTCGACG | 0.962 ± 0.027
7 | TCGGTCGATT | 1.019 ± 0.0031
8 | TCGGTGATAC | 4.52 ± 1.3
9 | TCGGTTAATG | 1 ± 0.042
10 | TCGGTTGGGA | 0.986 ± 0.038
11 | TCGGTTTAGG | 1.011 ± 0.0076
12 | TCGGTTTCAA | 1.009 ± 0.0056
13 | TCGTAAACGG | 1.01 ± 0.02
14 | TCGTACAGGG | 1.03 ± 0.047
15 | TCGTACGCTA | 3.38 ± 0.084
16 | TCGTAGTGGC | 1.11 ± 0.1
17 | TCGTAGTGGG | 1.01 ± 0.054
18 | TCGTAGTTGC | 1.24 ± 0.027
19 | TCGTATAAGG | 0.982 ± 0.037
20 | TCGTATAGAG | 1 ± 0.017
21 | TCGTATATTA | 1.02 ± 0.013
22 | TCGTATGATA | 0.968 ± 0.036
23 | TCGTATTGGT | 1.02 ± 0.023
24 | TCGTATTGTG | 0.975 ± 0.032
25 | TCGTCCGGAG | 1.55 ± 0.016

Row | Sequence | switch fluorescence ratio
26 | TCGTCCGGCG | 0.96503 ± 0.00055
27 | TCGTCGAACG | 0.988 ± 0.04
28 | TCGTGCAGTT | 1.01 ± 0.015
29 | TCGTGGATGG | 1 ± 0.026
30 | TCGTGGGAAG | 0.9721 ± 0.0062
31 | TCGTGGGGGG | 0.991 ± 0.031
32 | TCGTGGGTAT | 0.998 ± 0.025
33 | TCGTGTACGG | 1.04 ± 0.016
34 | TCGTGTAGCT | 1 ± 0.03
35 | TCGTGTGTTC | 1.022 ± 0.0047
36 | TCGTGTTTTC | 1.03 ± 0.083
37 | TCGTTATGTG | 0.9829 ± 0.0085
38 | TCGTTGGATG | 0.9829 ± 0.0013
39 | TCGTTGGGAT | 0.986 ± 0.053
40 | TCGTTGGGGT | 0.987 ± 0.029
41 | TCGTTTGCGT | 0.984 ± 0.032
42 | TCGTTTGGAG | 0.998 ± 0.022
43 | TCGTTTGGGG | 1.05 ± 0.061
44 | TCGTTTGGGT | 0.978 ± 0.035
45 | TCGTTTTCCT | 1.02 ± 0.043
46 | TCTAAATCTT | 1.01 ± 0.011
47 | TCTAAGTAAC | 1 ± 0.025
48 | TCTAAGTATT | 1.02 ± 0.026
49 | TCTAAGTTGT | 1.002 ± 0.0058
50 | TCTAATTGGG | 1.01 ± 0.037

Row | Sequence | switch fluorescence ratio
51 | TCTAATTTCC | 1.05 ± 0.045
52 | TCTAGTTTAT | 0.987 ± 0.033
53 | TCTATAATGT | 0.965 ± 0.025
54 | TCTATACTTT | 1 ± 0.021
55 | TCTATGGCTA | 1.03 ± 0.03
56 | TCTATGGGGG | 0.986 ± 0.019
57 | TCTATGGTGA | 1.0391 ± 0.00096
58 | TCTATTGTAA | 0.991 ± 0.049
59 | TCTATTTGCA | 1 ± 0.042
60 | TCTATTTGTA | 0.9993 ± 0.0071
61 | TCTATTTTGT | 0.988 ± 0.017
62 | TCTCACGGAA | 1.68 ± 0.19
63 | TCTCGACTCA | 0.999 ± 0.02
64 | TCTCGCGGGA | 0.97 ± 0.023
65 | TCTCGGGGCG | 1 ± 0.055
66 | TCTCTTCCGT | 1.22 ± 0.056
67 | TCTGAATTCA | 0.972 ± 0.026
68 | TCTGACGGTG | 1.01 ± 0.017
69 | TCTGAGGGTT | 1.13 ± 0.12
70 | TCTGAGTAGG | 1 ± 0.037
71 | TCTGATATAG | 1 ± 0.003
72 | TCTGATGAAT | 1.02 ± 0.034
73 | TCTGCCACCT | 1.023 ± 0.0075
74 | TCTGCTAAAG | 1.01 ± 0.022
75 | TCTGCTAAGG | 0.98406 ± 0.00079

Row | Sequence | switch fluorescence ratio
76 | TCTGCTAGTT | 1.02 ± 0.021
77 | TCTGCTTGAG | 1.03 ± 0.022
78 | TCTGGAGTT | 1.077 ± 0.005
79 | TCTGGATTGT | 0.97294 ± 3.9e-05
80 | TCTGGCCTTC | 1.09 ± 0.1
81 | TCTGGCGGGG | 1.21 ± 0.38
82 | TCTGGCGTTG | 0.983 ± 0.01
83 | TCTGGGACGT | 0.9824 ± 0.0033
84 | TCTGGGCAGC | 1.04 ± 0.05
85 | TCTGGGGATG | 0.974 ± 0.072
86 | TCTGGGGCGT | 1.007 ± 0.0086
87 | TCTGGGGCTG | 0.969 ± 0.016
88 | TCTGGGGGGA | 1.01 ± 0.019
89 | TCTGGGGGTG | 1.02 ± 0.059
90 | TCTGGGGTGT | 1.13 ± 0.18
91 | TCTGGGTATG | 0.988 ± 0.016
92 | TCTGGGTGGT | 0.977 ± 0.042
93 | TCTGGTAGAG | 1.02 ± 0.023
94 | TCTGGTAGTG | 1.03 ± 0.035
95 | TCTGGTCGCT | 1.018 ± 0.01
96 | TCTGTATCTA | 0.993 ± 0.021
97 | TCTGTCAAGG | 1 ± 0.034
98 | TCTGTCCCTT | 1.01 ± 0.024
99 | TCTGTGCAGG | 1 ± 0.015
100 | TCTGTGCTGG | 0.98 ± 0.024

Row | Sequence | switch fluorescence ratio
101 | TCTGTGGCAA | 1.18 ± 0.28
102 | TCTGTGGCTG | 1.05 ± 0.1
103 | TCTGTGGTGT | 1.026 ± 0.0028
104 | TCTGTTATCG | 0.983 ± 0.043
105 | TCTGTTCTT | 1 ± 0.023
106 | TCTGTTGAAT | 1.01 ± 0.072
107 | TCTGTTGGGG | 0.992 ± 0.038
108 | TCTTAAGGGC | 0.972 ± 0.01
109 | TCTTAATGTA | 0.985 ± 0.015
110 | TCTTACAGTA | 1.09 ± 0.04
111 | TCTTAGACAT | 0.9646 ± 0.0028
112 | TCTTATAAAC | 1.02 ± 0.023
113 | TCTTATCTGG | 0.972 ± 0.012
114 | TCTTATTGG | 1.02 ± 0.028
115 | TCTTATTGGG | 0.995 ± 0.042
116 | TCTTCACTAA | 1 ± 0.052
117 | TCTTCGACCG | 1.31 ± 0.28
118 | TCTTCGGCGA | 1.46 ± 0.16
119 | TCTTCGGTTT | 1.11 ± 0.12
120 | TCTTGAAGG | 0.953 ± 0.023
121 | TCTTGAGCTT | 1.04 ± 0.03
122 | TCTTGCCCTG | 0.977 ± 0.058
123 | TCTTGGAGAA | 1.05 ± 0.06
124 | TCTTGGATGG | 0.986 ± 0.04
125 | TCTTGGCTTT | 0.976 ± 0.019

Row | Sequence | switch fluorescence ratio
126 | TCTTGGGATT | 0.981 ± 0.0029
127 | TCTTGGGGGG | 1 ± 0.019
128 | TCTTGGTTTT | 1.02 ± 0.044
129 | TCTTGTCGGT | 1 ± 0.034
130 | TCTTTAAGGT | 1.04 ± 0.023
131 | TCTTTACAGT | 1.05 ± 0.032
132 | TCTTTCGGTG | 1.02 ± 0.04
133 | TCTTTGATTT | 1 ± 0.048
134 | TCTTTGCGCC | 1.06 ± 0.019
135 | TCTTTTAAGT | 0.97 ± 0.033
136 | TCTTTTAATT | 1.05 ± 0.07
137 | TCTTTTATGG | 1.04 ± 0.093
138 | TCTTTTCAGC | 0.992 ± 0.045
139 | TCTTTTGGAG | 0.996 ± 0.045
140 | TCTTTTGGTA | 0.9895 ± 0.0052
141 | TCTTTTTTCC | 1.1 ± 0.1
142 | TGAAAAAAAC | 0.9871 ± 0.0072
143 | TGAAAAAAGA | 0.988 ± 0.019
144 | TGAAAAAGTG | 0.9941 ± 0.0077
145 | TGAAAAATGG | 1.01 ± 0.031
146 | TGAAAAATTT | 0.988 ± 0.025
147 | TGAAAACGGT | 1 ± 0.035
148 | TGAAAAGTTG | 0.987 ± 0.1
149 | TGAAAATAGG | 0.9771 ± 0.0068
150 | TGAAAATGGT | 0.996 ± 0.015

Row | Sequence | switch fluorescence ratio
151 | TGAAACACCG | 1.46 ± 0.66
152 | TGAAACATTT | 0.975 ± 0.036
153 | TGAAACGTAT | 0.993 ± 0.023
154 | TGAAAGATTT | 1 ± 0.03
155 | TGAAAGCCAC | 1.1 ± 0.024
156 | TGAAAGGGGA | 1.03 ± 0.054
157 | TGAAATCATA | 0.996 ± 0.037
158 | TGAAATTCTT | 1.012 ± 0.0094
159 | TGAACATTTT | 1.07 ± 0.079
160 | TGAACGGTTC | 1.02 ± 0.021
161 | TGAACTCGGG | 0.989 ± 0.017
162 | TGAACTCTAG | 1.02 ± 0.059
163 | TGAACTTGCT | 1.02 ± 0.074
164 | TGAAGAATGT | 1.02 ± 0.017
165 | TGAAGACATT | 1.02 ± 0.04
166 | TGAAGACCAT | 1.016 ± 0.0058
167 | TGAAGAGGAT | 1.09 ± 0.15
168 | TGAAGATCGC | 1.02 ± 0.018
169 | TGAAGCATTG | 1.35 ± 0.38
170 | TGAAGGATGG | 1 ± 0.027
171 | TGAAGGCAGG | 1.01 ± 0.072
172 | TGAAGGCCTT | 0.9953 ± 0.0011
173 | TGAAGGGAAA | 1 ± 0.051
174 | TGAAGGGGAG | 1.01 ± 0.069
175 | TGAAGGGGGG | 0.984 ± 0.034

Row | Sequence | switch fluorescence ratio
176 | TGAAGGGTGC | 1.02 ± 0.054
177 | TGAAGGTCGT | 0.99 ± 0.029
178 | TGAAGGTTGG | 1.02 ± 0.025
179 | TGAAGTCG | 0.999 ± 0.027
180 | TGAAGTGGGG | 0.954 ± 0.016
181 | TGAAGTTTAC | 2.03 ± 1.4
182 | TGAAGTTTGC | 0.999 ± 0.01
183 | TGAAGTTTTT | 1.02 ± 0.064
184 | TGAATACGGG | 1.006 ± 0.004
185 | TGAATCAATT | 1.06 ± 0.026
186 | TGAATCAGG | 1.01 ± 0.073
187 | TGAATCCTCG | 1.05 ± 0.012
188 | TGAATGCTGA | 0.961 ± 0.017
189 | TGAATGGTTT | 0.997 ± 0.031
190 | TGAATGTAGC | 0.9781 ± 0.0024
191 | TGAATTTGGG | 0.997 ± 0.064
192 | TGACAATCCT | 1.05 ± 0.016
193 | TGACAGTTAT | 1.06 ± 0.038
194 | TGACCCGTAC | 2.64 ± 1.7
195 | TGACCGCTTT | 1.12 ± 0.029
196 | TGACCGTAGA | 1.03 ± 0.028
197 | TGACCTCTTA | 0.992 ± 0.024
198 | TGACGGGCAG | 1.07 ± 0.015
199 | TGACGGGGTA | 1.04 ± 0.12
200 | TGACGGGTTA | 1.02 ± 0.022
